These are literature values, as cited in publication PMC2517140.

For the data set, the target named is gp41 trimeric inner core (Human immunodeficiency virus 1) (UniProt O70902).

In general, Kd refers to the concentration at which binding is half-saturated. For “gp41 outer-layer peptide (from UniProt O70902)”, the Kd was 1 nM.
